According to the supplement of paper PMC10724198:

system: Saccharomyces cerevisiae; test: protein stability index of tFT-peptide fusion in wild type (PSI (0-1 scale)); higher = more stable (slower turnover); conditions: genetic background: wild type
Protocol: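 MPS profiling in S. cerevisiae of two library types built from selected 12-aa C-degron peptides (IN1, IN2, LN1, LN3, VN2, R1-R5, W1-W3, Atg1 and Rpa12 C-termini): saturation mutagenesis libraries and C-terminal +1 capping libraries (13 aa). Each peptide is fused to the C-terminus of a sfGFP-mCherry timer, after a GGGS linker. Cells are FACS-sorted into 8 mCherry/sfGFP bins and sequenced. PSI runs from 0 (unstable) to 1 (stable), measured once in wild type and in the das1Δ or doa10Δ background.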
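Also: PSI derived as read-weighted mean over the 8 sorting bins, only variants exceeding 10 total reads kept, mCherry placed adjacent to the peptide and sfGFP distal.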

For CTSCGYKFYTNN, which protein stability index is on record?
The protein stability index was 0.374.

How did the protein stability index turn out when CTSCGYKHRTNN was run?
The protein stability index was 0.582.

With CTSCGYKWRTNN as the sequence, how does the protein stability index read?
Its protein stability index is 0.153.

Which protein stability index does the source give for CTSCGYVFRTNN here?
Its protein stability index is 0.196.

For CTSCNYKFRTNN, which protein stability index is on record?
Its protein stability index is 0.407.

CTSCTYKFRTNN was tested. Which protein stability index did it give?
Its protein stability index is 0.238.

How did the protein stability index turn out when CTSVGYKFRTNN was run?
Its protein stability index is 0.176.

With CTVCGYKFRTNN as the sequence, how does the protein stability index read?
The protein stability index was 0.28.

Which protein stability index does the source give for CVSCGYKFRTNN here?
Its protein stability index is 0.243.

For CWSCGYKFRTNN, which protein stability index is on record?
Its protein stability index is 0.167.

DSLAASFWRVVG was tested. Which protein stability index did it give?
Its protein stability index is 0.135.

For ELIQPLPVQFLN, which protein stability index is on record?
The protein stability index was 0.0675.

Which protein stability index does the source give for EVVYLSCVACIN here?
Its protein stability index is 0.0159.

For FCMRWTFRYWVN, which protein stability index is on record?
The protein stability index was 0.0388.

With FDKRNHLIKLLN as the sequence, how does the protein stability index read?
The protein stability index was 0.131.

For FHMRWTFRYWVN, which protein stability index is on record?
Its protein stability index is 0.0327.

Which protein stability index does the source give for FLIQPLPVQFLN here?
Its protein stability index is 0.0527.

How did the protein stability index turn out when FSIRWTFRYWVN was run?
Its protein stability index is 0.0207.

FSMRDTFRYWVN was tested. Which protein stability index did it give?
Its protein stability index is 0.0684.

FSMRVTFRYWVN was tested. Which protein stability index did it give?
The protein stability index was 0.0315.

With FSMRWAFRYWVN as the sequence, how does the protein stability index read?
The protein stability index was 0.115.

For FSMRWLFRYWVN, which protein stability index is on record?
The protein stability index was 0.0905.

FSMRWSFRYWVN was tested. Which protein stability index did it give?
The protein stability index was 0.0724.

For FSMRWTDRYWVN, which protein stability index is on record?
Its protein stability index is 0.0929.

How did the protein stability index turn out when FSMRWTFRFWVN was run?
Its protein stability index is 0.052.

How did the protein stability index turn out when FSMRWTFRIWVN was run?
Its protein stability index is 0.0523.

With FSMRWTFRSWVN as the sequence, how does the protein stability index read?
Its protein stability index is 0.272.

How did the protein stability index turn out when FSMRWTFRYHVN was run?
The protein stability index was 0.035.

Which protein stability index does the source give for FSMRWTFRYNVN here?
The protein stability index was 0.214.

For FSMRWTFRYVVN, which protein stability index is on record?
Its protein stability index is 0.117.

How did the protein stability index turn out when FSMRWTFRYWDN was run?
The protein stability index was 0.0861.

Which protein stability index does the source give for FSMRWTFRYWRN here?
Its protein stability index is 0.653.

For FSMRWTFRYWVC, which protein stability index is on record?
Its protein stability index is 0.0396.

For FSMRWTFRYWVD, which protein stability index is on record?
Its protein stability index is 0.46.

For FSMRWTFRYWVNN, which protein stability index is on record?
The protein stability index was 0.137.

FSMRWTFRYWVNQ was tested. Which protein stability index did it give?
Its protein stability index is 0.141.

For FSMRWTFRYWVQ, which protein stability index is on record?
Its protein stability index is 0.205.

With FSMRWTFRYWVY as the sequence, how does the protein stability index read?
The protein stability index was 0.0725.

Which protein stability index does the source give for FSMRWTFRYYVN here?
Its protein stability index is 0.0506.

How did the protein stability index turn out when FSMRWTHRYWVN was run?
Its protein stability index is 0.0511.

Which protein stability index does the source give for FSMWWTFRYWVN here?
The protein stability index was 0.077.

For FSNRWTFRYWVN, which protein stability index is on record?
The protein stability index was 0.0838.

Which protein stability index does the source give for GKHKKGQKQKIN here?
Its protein stability index is 0.133.

How did the protein stability index turn out when GLIQPLPVQFLN was run?
Its protein stability index is 0.0806.

Which protein stability index does the source give for HDKRNHLIKLLN here?
Its protein stability index is 0.077.

Which protein stability index does the source give for HKILRQKMNHQN here?
The protein stability index was 0.168.

With IVVYLSCVACIN as the sequence, how does the protein stability index read?
The protein stability index was 0.0176.

KKHAKGQKQKIN was tested. Which protein stability index did it give?
Its protein stability index is 0.121.

How did the protein stability index turn out when KKHKKGPKQKIN was run?
Its protein stability index is 0.175.

With KKHKKGQAQKIN as the sequence, how does the protein stability index read?
The protein stability index was 0.0853.

For KKHKKGQKIKIN, which protein stability index is on record?
Its protein stability index is 0.294.

KKHKKGQKQEIN was tested. Which protein stability index did it give?
Its protein stability index is 0.591.

How did the protein stability index turn out when KKHKKGQKQKAN was run?
Its protein stability index is 0.308.

With KKHKKGQKQKIK as the sequence, how does the protein stability index read?
The protein stability index was 0.634.

KKHKKGQKQKIL was tested. Which protein stability index did it give?
The protein stability index was 0.222.

How did the protein stability index turn out when KKHKKGQKQKIS was run?
Its protein stability index is 0.101.

With KKHKKGQKQMIN as the sequence, how does the protein stability index read?
The protein stability index was 0.117.

With KKHKKGQKVKIN as the sequence, how does the protein stability index read?
The protein stability index was 0.225.

Which protein stability index does the source give for KKHKKGQLQKIN here?
The protein stability index was 0.121.

For KKHKKGQNQKIN, which protein stability index is on record?
The protein stability index was 0.191.

For KKHKKQQKQKIN, which protein stability index is on record?
Its protein stability index is 0.0595.

How did the protein stability index turn out when KLHKKGQKQKIN was run?
The protein stability index was 0.0703.

KTSCGYKFRTNN was tested. Which protein stability index did it give?
Its protein stability index is 0.225.

For LDKRNHLIKLLN, which protein stability index is on record?
The protein stability index was 0.137.

How did the protein stability index turn out when LEVYLSCVACIN was run?
The protein stability index was 0.0193.

LKILDQKMNHQN was tested. Which protein stability index did it give?
Its protein stability index is 0.648.

For LKILRLKMNHQN, which protein stability index is on record?
Its protein stability index is 0.171.

LKILRQIMNHQN was tested. Which protein stability index did it give?
Its protein stability index is 0.244.

LKILRQKDNHQN was tested. Which protein stability index did it give?
Its protein stability index is 0.664.

Which protein stability index does the source give for LKILRQKMNHQC here?
The protein stability index was 0.184.

LKILRQKMNHSN was tested. Which protein stability index did it give?
Its protein stability index is 0.231.

LKILRQKMNLQN was tested. Which protein stability index did it give?
The protein stability index was 0.221.

LKILRQKMNWQN was tested. Which protein stability index did it give?
The protein stability index was 0.286.

With LKILRQKMYHQN as the sequence, how does the protein stability index read?
The protein stability index was 0.249.

For LKILRQLMNHQN, which protein stability index is on record?
Its protein stability index is 0.219.

Which protein stability index does the source give for LKILRQPMNHQN here?
The protein stability index was 0.658.

Which protein stability index does the source give for LKILRQWMNHQN here?
Its protein stability index is 0.184.

For LKILRQYMNHQN, which protein stability index is on record?
Its protein stability index is 0.242.

With LKQLRQKMNHQN as the sequence, how does the protein stability index read?
The protein stability index was 0.212.

How did the protein stability index turn out when LKSLRQKMNHQN was run?
The protein stability index was 0.202.

Which protein stability index does the source give for LLVYLSCVACIN here?
The protein stability index was 0.0174.

For LRWRVGLWRGAS, which protein stability index is on record?
The protein stability index was 0.0917.

Which protein stability index does the source give for LSMRWTFRYWVN here?
Its protein stability index is 0.0756.

How did the protein stability index turn out when LVVHLSCVACIN was run?
Its protein stability index is 0.0147.

With LVVYDSCVACIN as the sequence, how does the protein stability index read?
The protein stability index was 0.368.

For LVVYLNCVACIN, which protein stability index is on record?
The protein stability index was 0.0331.

Which protein stability index does the source give for LVVYLPCVACIN here?
Its protein stability index is 0.119.

Which protein stability index does the source give for LVVYLSCNACIN here?
The protein stability index was 0.0647.

With LVVYLSCVACINA as the sequence, how does the protein stability index read?
The protein stability index was 0.0212.

How did the protein stability index turn out when LVVYLSCVACINP was run?
Its protein stability index is 0.0199.

How did the protein stability index turn out when LVVYLSCVACIP was run?
Its protein stability index is 0.0232.

For LVVYLSCVLCIN, which protein stability index is on record?
Its protein stability index is 0.0221.

Which protein stability index does the source give for LVVYLSCVQCIN here?
Its protein stability index is 0.0151.

How did the protein stability index turn out when LVVYLSGVACIN was run?
The protein stability index was 0.181.

With LVVYLSIVACIN as the sequence, how does the protein stability index read?
Its protein stability index is 0.0584.

For LVVYLSSVACIN, which protein stability index is on record?
The protein stability index was 0.0245.

How did the protein stability index turn out when LVVYLWCVACIN was run?
The protein stability index was 0.0141.

Which protein stability index does the source give for LVYYLSCVACIN here?
Its protein stability index is 0.0126.

With LWILRQKMNHQN as the sequence, how does the protein stability index read?
The protein stability index was 0.124.

For MLIQPLPVQFLN, which protein stability index is on record?
The protein stability index was 0.0562.

With NVVYLSCVACIN as the sequence, how does the protein stability index read?
The protein stability index was 0.0156.

Which protein stability index does the source give for PAKRNHLIKLLN here?
The protein stability index was 0.131.

With PALAASFWRVVG as the sequence, how does the protein stability index read?
Its protein stability index is 0.178.

How did the protein stability index turn out when PDCRNHLIKLLN was run?
The protein stability index was 0.136.

PDIRNHLIKLLN was tested. Which protein stability index did it give?
The protein stability index was 0.134.

For PDKRNFLIKLLN, which protein stability index is on record?
The protein stability index was 0.112.

With PDKRNHHIKLLN as the sequence, how does the protein stability index read?
The protein stability index was 0.111.

For PDKRNHIIKLLN, which protein stability index is on record?
Its protein stability index is 0.132.

How did the protein stability index turn out when PDKRNHLEKLLN was run?
The protein stability index was 0.292.

With PDKRNHLIGLLN as the sequence, how does the protein stability index read?
Its protein stability index is 0.612.

PDKRNHLIILLN was tested. Which protein stability index did it give?
The protein stability index was 0.107.

Which protein stability index does the source give for PDKRNHLIKLLNL here?
The protein stability index was 0.298.

PDKRNHLIKTLN was tested. Which protein stability index did it give?
Its protein stability index is 0.164.

With PDKRNHLIVLLN as the sequence, how does the protein stability index read?
Its protein stability index is 0.148.

Which protein stability index does the source give for PDKRNHLNKLLN here?
The protein stability index was 0.126.

How did the protein stability index turn out when PDKRNHLRKLLN was run?
The protein stability index was 0.205.

Which protein stability index does the source give for PDKRNHRIKLLN here?
The protein stability index was 0.159.
